The target in data set [1] is MBP:HA-HC-Pro fusion protein (ZYMV HC-Pro fused to the C-terminus of maltose binding protein, HA-tag between … (zucchini yellow mosaic virus (ZYMV), UniProt P0AEX9 27-396 = MBP)). Kind of data set: cell-based or functional assay.
Data set [2] deals with the molecule itself. The experiment in a line: Western blot / Coomassie gel after Ni-NTA purification (self-association).

B1: Trx-cupin-protein-His-protein (A. thaliana cupin protein expressed from pET32a(+)) (other)
chain: MGCIGVVNVTSINPYLTRRSNKPYNSRRPSSMAAAIRAESTEKLGITIEKNPPESKLTQLGVRSWPKWGCPPSKFPWTYSAKETCYLLQGKVKVYPNGSDEGVEIEAGDFVVFPKGMSCTWDVSVAVDKHYQFE
notes: Expressed in BL21 (DE3) codon plus, purified by the His-tag; 34 kDa monomer; also called Tm-cupin-protein-His-protein; Trx-QP-His-protein; not shown: N-terminal pET32a(+) tags: thioredoxin (Trx-tag), 6 X His-tag, S-Tag, enterokinase site; C-terminal 6 X His-tag from pET32a(+)
As to B1, in data set [1], the “gelshift (EMSA): binding of 21 bp siRNA-double strands by MBP-HA-HC-Pro, signal intensities (Quantity One)” value came out at 3 fold. For the same molecule, the binding result in data set [2] is on record as “binds”.
